Reference: article PMC6760140 (2019)
Read-outs that look alike come from different tables or passages of the source.

B1: 2544 Fab (Fab, V domains shown)
VH: EVQLVESGGGLVQPGGSLRLSCVASGFTFSNYNMNWVRQAPGKGLEWLSYISSSSGTIYYADSVKGRFTISRDNAKNSMYLQMNSLRAEDTAVYYCVRVEYYYGSSGYYYDFDSWGQGTLVTVSS
VL: DIVMTQSPLSLPVTPGEPASISCRSSQSLLHNGYNYLDWYLQKPGQSPQLLIYLGSNRASGVPDRFSGSGSGTDFTLKISRVEAEDVGVYYCMQTLQPFTFGQGTRLEIK
B2: 2586 Fab (Fab, V domains shown)
VH: EVHLVESGGGLVQPGGSLRLSCAASGFTFSDHYMDWVRQAPGKGLEWVGRIRNKANSYTTDYAASVKGRFTILRDDSKNSLYLQMNSLKTEDAAVYYCVRVGGLGERGDYYYYYMDVWGKGTTVTVSS
VL: SYELTQPPSVSFSPGQTARITCSGDALSKQYTYWYQQKPGQAPVLVIYKDSERPSGIPERFSGSSSGTTVTLTISGVQAEDEADYYCQSADSSGPYQVLFGGGTKLTVL
B3: 2587 Fab (Fab, V domains shown)
VH: QVQLVQSGAEVRKPGASVKVSCKASGYSFTSYILNWVRQATGQGLEWMGWMNPDSNNTEYAQKFQGRVTITRDTSISTVYMELSGLRSEDTAVYYCARHSFKSNTGFDYWGQGTQVTVSS
VL: SYELSQPPSVSVSAGQTASITCSGDKLGGKYGYWYQQRPGQSPILVIYQDSKRPSGIPERFSGSNSGNTATLTISGTQAMDEADYYCQAWDISTNWVFGGGTKLTVL
B4: 2530 Fab (Fab, V domains shown)
VH: QVQLQESGPGLVKPSETLSLTCTVSGDSMSSYYWSWIRQPAGKGLEWIGRISTSGSTNYNPSLKSRVTMSVDTSNNHFSMRLNSVTAADTAVYYCACSGSYSFFDYWGQGTLVTVSS
VL: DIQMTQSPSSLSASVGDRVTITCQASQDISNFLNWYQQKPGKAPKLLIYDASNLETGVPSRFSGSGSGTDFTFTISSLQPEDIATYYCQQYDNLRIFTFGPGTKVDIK

How the values were obtained:
Assay in all cases: BLI
[1] = target: T1, Recombinant His-tagged Pfs25 (Plasmodium falciparum, UniProt P13829 17-196)
[2] = target: T1, Recombinant His-tagged Pfs25; remark: listed apart in the source
[3] = target: T1, Recombinant His-tagged Pfs25; remark: listed apart in the source

Binder	koff [1] [s⁻¹]	Kd [2] [nM]	Kd [3] [nM]
B1	0.00075		
B2	0.00037	2.5	
B3	0.0007		4.6
B4	0.0062	19.2	
